This experiment concerns the target HIV-1 MN strain envelope (Env) on Env-pseudotyped virus (HIV-1 MN strain) (UniProt P05877). Kind of experiment: cell-based or functional assay.

Chain of HIV-1 MN strain envelope (Env) on Env-pseudotyped virus (HIV-1 MN strain) (P05877 32-856 limits assumed): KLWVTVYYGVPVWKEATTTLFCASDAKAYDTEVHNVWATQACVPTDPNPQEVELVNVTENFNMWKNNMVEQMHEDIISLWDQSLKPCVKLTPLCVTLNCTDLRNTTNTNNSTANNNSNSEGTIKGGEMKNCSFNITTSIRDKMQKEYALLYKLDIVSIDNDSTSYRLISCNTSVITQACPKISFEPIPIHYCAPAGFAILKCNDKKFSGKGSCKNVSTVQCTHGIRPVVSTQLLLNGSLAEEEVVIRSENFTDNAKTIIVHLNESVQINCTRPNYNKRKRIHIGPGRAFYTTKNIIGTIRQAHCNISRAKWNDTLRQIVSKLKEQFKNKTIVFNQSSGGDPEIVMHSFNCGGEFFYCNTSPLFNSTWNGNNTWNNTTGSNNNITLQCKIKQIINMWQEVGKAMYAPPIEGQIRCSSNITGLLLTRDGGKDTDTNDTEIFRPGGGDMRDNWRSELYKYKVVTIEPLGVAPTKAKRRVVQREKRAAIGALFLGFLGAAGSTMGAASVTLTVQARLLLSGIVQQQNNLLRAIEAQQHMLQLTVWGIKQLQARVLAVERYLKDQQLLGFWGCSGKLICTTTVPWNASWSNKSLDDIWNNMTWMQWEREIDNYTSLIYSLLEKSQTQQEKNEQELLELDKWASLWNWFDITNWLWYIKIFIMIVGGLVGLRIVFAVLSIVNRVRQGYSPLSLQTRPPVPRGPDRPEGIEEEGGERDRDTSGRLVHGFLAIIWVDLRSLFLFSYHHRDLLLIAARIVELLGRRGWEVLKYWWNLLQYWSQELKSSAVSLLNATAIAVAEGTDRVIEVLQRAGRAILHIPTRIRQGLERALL

“native actinohivin (AH) polypeptide (from UniProt Q9KWN0 47-160)” yielded a 50% inhibitory concentration (IC50), neutralization of Env-pseudotyped virus, TZM-bl luciferase reporter assay of 0.5 µg/mL.

For the origin of these results see patent US20130209464A1.
